In paper PMC9945959:

Target: Full-length human NF1 isoform 2 (short isoform), recombinant (human) (UniProt P21359)
Test: cryo-EM structure

- stoichiometry N: 2
Substance: Full-length human NF1 isoform 2 (short isoform), recombinant, P21359-2 1-2818
